From the supplement of paper PMC10567573

B1: RSPH3 (parent)
chain: VDVQTELYLEEIADRIIEVDMECQ

Variants of: B1
Assay: protein stability index of a GFP-peptide fusion (GPS, HEK-293T) (PSI 1-6); higher = more stable
Conditions: c terminus: a fixed tail appended
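Also: lentivirally expressed fusions sorted by FACS into six bins by GFP to DsRed ratio, PSI derived from sequencing read proportions per bin multiplied by bin number.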

Point of comparison: VDVQTELYLCEIADRIIEVDMECQ [E10C], protein stability index 1.58. Against it:
- VDVQQELYLEEIADRIIEVDMECQ [T5Q] — higher, 2.52
- VDVQRELYLEEIADRIIEVDMECQ [T5R] — higher, 3.09
- VDVQSELYLEEIADRIIEVDMECQ [T5S] — higher, 2.5
- VDVQYELYLEEIADRIIEVDMECQ [T5Y] — higher, 3.42
- VDVQTALYLEEIADRIIEVDMECQ [E6A] — higher, 1.73
- VDVQTCLYLEEIADRIIEVDMECQ [E6C] — lower, 1.57
- VDVQTDLYLEEIADRIIEVDMECQ [E6D] — higher, 2.03
- VDVQTFLYLEEIADRIIEVDMECQ [E6F] — higher, 1.64
- VDVQTGLYLEEIADRIIEVDMECQ [E6G] — higher, 3.25
- VDVQTHLYLEEIADRIIEVDMECQ [E6H] — higher, 2.19
- VDVQTKLYLEEIADRIIEVDMECQ [E6K] — higher, 2.44
- VDVQTLLYLEEIADRIIEVDMECQ [E6L] — higher, 1.65
- VDVQTMLYLEEIADRIIEVDMECQ [E6M] — higher, 3.63
- VDVQTNLYLEEIADRIIEVDMECQ [E6N] — higher, 2.18
- VDVQTPLYLEEIADRIIEVDMECQ [E6P] — higher, 3.41
- VDVQTQLYLEEIADRIIEVDMECQ [E6Q] — higher, 2.14
- VDVQTRLYLEEIADRIIEVDMECQ [E6R] — higher, 2.52
- VDVQTSLYLEEIADRIIEVDMECQ [E6S] — higher, 2.39
- VDVQTTLYLEEIADRIIEVDMECQ [E6T] — higher, 1.83
- VDVQTVLYLEEIADRIIEVDMECQ [E6V] — higher, 2.24
- VDVQTWLYLEEIADRIIEVDMECQ [E6W] — higher, 2.21
- VDVQTEAYLEEIADRIIEVDMECQ [L7A] — higher, 3.2
- VDVQTECYLEEIADRIIEVDMECQ [L7C] — higher, 3.01
- VDVQTEDYLEEIADRIIEVDMECQ [L7D] — higher, 2.71
- VDVQTEEYLEEIADRIIEVDMECQ [L7E] — higher, 4.3
- VDVQTEFYLEEIADRIIEVDMECQ [L7F] — higher, 1.79
- VDVQTEGYLEEIADRIIEVDMECQ [L7G] — higher, 4.11
- VDVQTEHYLEEIADRIIEVDMECQ [L7H] — higher, 3.38
- VDVQTEIYLEEIADRIIEVDMECQ [L7I] — higher, 2.1
- VDVQTEKYLEEIADRIIEVDMECQ [L7K] — higher, 3.96
- VDVQTEMYLEEIADRIIEVDMECQ [L7M] — higher, 1.73
- VDVQTENYLEEIADRIIEVDMECQ [L7N] — higher, 3.96
- VDVQTEPYLEEIADRIIEVDMECQ [L7P] — higher, 3.07
- VDVQTEQYLEEIADRIIEVDMECQ [L7Q] — higher, 3.41
- VDVQTERYLEEIADRIIEVDMECQ [L7R] — higher, 2.65
- VDVQTESYLEEIADRIIEVDMECQ [L7S] — higher, 3.06
- VDVQTETYLEEIADRIIEVDMECQ [L7T] — higher, 3
- VDVQTEVYLEEIADRIIEVDMECQ [L7V] — lower, 1.45
- VDVQTEWYLEEIADRIIEVDMECQ [L7W] — higher, 2.04
- VDVQTEYYLEEIADRIIEVDMECQ [L7Y] — higher, 2.34
- VDVQTELALEEIADRIIEVDMECQ [Y8A] — higher, 4.03
- VDVQTELCLEEIADRIIEVDMECQ [Y8C] — higher, 3.04
- VDVQTELDLEEIADRIIEVDMECQ [Y8D] — higher, 4.25
- VDVQTELELEEIADRIIEVDMECQ [Y8E] — higher, 4.48
- VDVQTELFLEEIADRIIEVDMECQ [Y8F] — higher, 1.92
- VDVQTELGLEEIADRIIEVDMECQ [Y8G] — higher, 4.65
- VDVQTELHLEEIADRIIEVDMECQ [Y8H] — higher, 3.85
- VDVQTELILEEIADRIIEVDMECQ [Y8I] — higher, 1.71
- VDVQTELMLEEIADRIIEVDMECQ [Y8M] — higher, 2.34
- VDVQTELNLEEIADRIIEVDMECQ [Y8N] — higher, 4
- VDVQTELPLEEIADRIIEVDMECQ [Y8P] — higher, 3.77
- VDVQTELQLEEIADRIIEVDMECQ [Y8Q] — higher, 4.25
- VDVQTELRLEEIADRIIEVDMECQ [Y8R] — higher, 3.11
- VDVQTELSLEEIADRIIEVDMECQ [Y8S] — higher, 3.65
- VDVQTELTLEEIADRIIEVDMECQ [Y8T] — higher, 3.5
- VDVQTELVLEEIADRIIEVDMECQ [Y8V] — higher, 2.85
- VDVQTELWLEEIADRIIEVDMECQ [Y8W] — higher, 2.51
- VDVQTELYAEEIADRIIEVDMECQ [L9A] — higher, 4.01
- VDVQTELYCEEIADRIIEVDMECQ [L9C] — higher, 3.4
- VDVQTELYDEEIADRIIEVDMECQ [L9D] — higher, 5.51
- VDVQTELYEEEIADRIIEVDMECQ [L9E] — higher, 5.12
- VDVQTELYFEEIADRIIEVDMECQ [L9F] — higher, 2.21
- VDVQTELYGEEIADRIIEVDMECQ [L9G] — higher, 4.44
- VDVQTELYHEEIADRIIEVDMECQ [L9H] — higher, 4.71
- VDVQTELYIEEIADRIIEVDMECQ [L9I] — higher, 2.33
- VDVQTELYKEEIADRIIEVDMECQ [L9K] — higher, 4.65
- VDVQTELYMEEIADRIIEVDMECQ [L9M] — higher, 3.33
- VDVQTELYNEEIADRIIEVDMECQ [L9N] — higher, 5.14
- VDVQTELYPEEIADRIIEVDMECQ [L9P] — higher, 4.5
- VDVQTELYQEEIADRIIEVDMECQ [L9Q] — higher, 5.62
- VDVQTELYREEIADRIIEVDMECQ [L9R] — higher, 4.19
- VDVQTELYSEEIADRIIEVDMECQ [L9S] — higher, 4.92
- VDVQTELYTEEIADRIIEVDMECQ [L9T] — higher, 4.38
- VDVQTELYVEEIADRIIEVDMECQ [L9V] — higher, 2.91
- VDVQTELYWEEIADRIIEVDMECQ [L9W] — higher, 1.97
- VDVQTELYYEEIADRIIEVDMECQ [L9Y] — higher, 2.79
- VDVQTELYLAEIADRIIEVDMECQ [E10A] — lower, 1.53
- VDVQTELYLDEIADRIIEVDMECQ [E10D] — higher, 2.54
- VDVQTELYLFEIADRIIEVDMECQ [E10F] — higher, 2.25
- VDVQTELYLGEIADRIIEVDMECQ [E10G] — higher, 2.42
- VDVQTELYLHEIADRIIEVDMECQ [E10H] — higher, 2
- VDVQTELYLKEIADRIIEVDMECQ [E10K] — higher, 2.48
- VDVQTELYLNEIADRIIEVDMECQ [E10N] — higher, 2.06
- VDVQTELYLPEIADRIIEVDMECQ [E10P] — higher, 3.62
- VDVQTELYLQEIADRIIEVDMECQ [E10Q] — higher, 1.93
- VDVQTELYLREIADRIIEVDMECQ [E10R] — higher, 2.15
- VDVQTELYLSEIADRIIEVDMECQ [E10S] — higher, 2.39
- VDVQTELYLTEIADRIIEVDMECQ [E10T] — higher, 1.86
- VDVQTELYLWEIADRIIEVDMECQ [E10W] — higher, 3.73
- VDVQTELYLYEIADRIIEVDMECQ [E10Y] — higher, 3.16
- VDVQTELYLEAIADRIIEVDMECQ [E11A] — higher, 1.95
- VDVQTELYLECIADRIIEVDMECQ [E11C] — higher, 2.83
- VDVQTELYLEDIADRIIEVDMECQ [E11D] — higher, 1.82
